# Source: patent US20200199241A1 (Chugai, published 2020)
# T1: human FcγRIIa(R) (human, UniProt P12318 36-217)
# T1 construct: also called FcgRIIaR; FcγRIIa type R
# T1 chain: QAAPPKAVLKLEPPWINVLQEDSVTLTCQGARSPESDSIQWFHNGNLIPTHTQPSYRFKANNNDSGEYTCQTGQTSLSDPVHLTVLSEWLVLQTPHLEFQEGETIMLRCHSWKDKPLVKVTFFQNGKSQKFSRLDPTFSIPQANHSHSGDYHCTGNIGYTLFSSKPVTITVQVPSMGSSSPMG
# T2: human FcγRIIa(H) (human, UniProt P12318 36-217)
# T2 construct: also called FcgRIIaH; FcγRIIa type H
# T2 sequence: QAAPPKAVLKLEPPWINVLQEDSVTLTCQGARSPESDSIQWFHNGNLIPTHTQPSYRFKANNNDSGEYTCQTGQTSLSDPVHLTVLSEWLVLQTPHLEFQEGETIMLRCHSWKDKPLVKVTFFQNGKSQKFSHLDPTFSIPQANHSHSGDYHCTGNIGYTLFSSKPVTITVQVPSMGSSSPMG
# T3: human FcγRIIb (human, UniProt P31994 43-217, limits assumed)
# T3 construct: also called FcgRIIb
# T3 sequence: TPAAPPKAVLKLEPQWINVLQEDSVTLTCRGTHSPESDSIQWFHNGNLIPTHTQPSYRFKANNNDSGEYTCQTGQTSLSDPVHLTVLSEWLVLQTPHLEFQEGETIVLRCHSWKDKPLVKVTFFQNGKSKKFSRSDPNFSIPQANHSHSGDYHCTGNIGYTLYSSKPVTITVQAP
# What was measured:
# Assay in all cases: SPR (Biacore);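 further: antibody variants captured on sensor chip, Fcγ receptor flowed over at 25 °C, bound receptor normalized to amount of captured antibody, expressed relative to reference antibody set as 100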
# human FcγRIa = biological target: T4, human FcγRIa (human, UniProt P12314 16-292, limits assumed)
# T4 construct: also called FcgRIa; FcγRI (CD64)
# human FcγRIIa(R) = biological target: T1, human FcγRIIa(R)
# human FcγRIIa(H) = biological target: T2, human FcγRIIa(H)
# human FcγRIIb = biological target: T3, human FcγRIIb
# human FcγRIIIa(F) = biological target: T5, human FcγRIIIa(F) (human, UniProt P08637 17-208, limits assumed)
# T5 construct: also called FcgRIIIaF; allotype F158
# T5 sequence (P08637 other isoform, or with tags, fused parts or gaps limits assumed): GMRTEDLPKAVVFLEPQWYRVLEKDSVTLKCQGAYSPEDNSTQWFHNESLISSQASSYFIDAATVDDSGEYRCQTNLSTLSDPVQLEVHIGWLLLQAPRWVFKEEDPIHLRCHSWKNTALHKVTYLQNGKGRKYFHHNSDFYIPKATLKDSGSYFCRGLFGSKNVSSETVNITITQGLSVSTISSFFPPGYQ
# T4 sequence (P12314 16-292 limits assumed): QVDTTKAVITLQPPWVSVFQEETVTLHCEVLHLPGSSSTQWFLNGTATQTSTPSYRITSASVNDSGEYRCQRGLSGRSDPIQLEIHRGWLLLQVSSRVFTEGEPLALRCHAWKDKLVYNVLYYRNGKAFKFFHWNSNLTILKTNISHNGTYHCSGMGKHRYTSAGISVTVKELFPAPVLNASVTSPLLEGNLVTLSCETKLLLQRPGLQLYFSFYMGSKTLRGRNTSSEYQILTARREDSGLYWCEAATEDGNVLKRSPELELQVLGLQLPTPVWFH
Binder,relative binding activity (human FcγRIa),relative binding activity (human FcγRIIa(R)),relative binding activity (human FcγRIIa(H)),relative binding activity (human FcγRIIb),relative binding activity (human FcγRIIIa(F))
"GpH7-B3 variant S239Y/GpL16-k0 (antibody, human IgG1, copies: 2 + 2) heavy: not shown light: DIVMTQSPLSLPVTPGEPASISCQASESLVHSNRNTYLHWYLQKPGQSPQLLIYKVSNRFSGVPDRFSGSGSGTDFTLKISRVEAEDVGVYYCSQNTHVPPTFGQGTKVEIE",69 % of GpH7-B3/GpL16-k0,11 % of GpH7-B3/GpL16-k0,5 % of GpH7-B3/GpL16-k0,12 % of GpH7-B3/GpL16-k0,6 % of GpH7-B3/GpL16-k0
"GpH7-B3 variant S267K/GpL16-k0 (antibody, human IgG1, copies: 2 + 2) heavy: not shown light: DIVMTQSPLSLPVTPGEPASISCQASESLVHSNRNTYLHWYLQKPGQSPQLLIYKVSNRFSGVPDRFSGSGSGTDFTLKISRVEAEDVGVYYCSQNTHVPPTFGQGTKVEIE",68 % of GpH7-B3/GpL16-k0,1 % of GpH7-B3/GpL16-k0,1 % of GpH7-B3/GpL16-k0,3 % of GpH7-B3/GpL16-k0,1 % of GpH7-B3/GpL16-k0
"GpH7-B3 variant V266A/GpL16-k0 (antibody, human IgG1, copies: 2 + 2) heavy: not shown light: DIVMTQSPLSLPVTPGEPASISCQASESLVHSNRNTYLHWYLQKPGQSPQLLIYKVSNRFSGVPDRFSGSGSGTDFTLKISRVEAEDVGVYYCSQNTHVPPTFGQGTKVEIE",95 % of GpH7-B3/GpL16-k0,68 % of GpH7-B3/GpL16-k0,41 % of GpH7-B3/GpL16-k0,55 % of GpH7-B3/GpL16-k0,26 % of GpH7-B3/GpL16-k0
"GpH7-B3 variant S267R/GpL16-k0 (antibody, human IgG1, copies: 2 + 2) heavy: not shown light: DIVMTQSPLSLPVTPGEPASISCQASESLVHSNRNTYLHWYLQKPGQSPQLLIYKVSNRFSGVPDRFSGSGSGTDFTLKISRVEAEDVGVYYCSQNTHVPPTFGQGTKVEIE",78 % of GpH7-B3/GpL16-k0,-6 % of GpH7-B3/GpL16-k0,-1 % of GpH7-B3/GpL16-k0,0 % of GpH7-B3/GpL16-k0,0 % of GpH7-B3/GpL16-k0
"GpH7-B3 variant V266P/GpL16-k0 (antibody, human IgG1, copies: 2 + 2) heavy: not shown light: DIVMTQSPLSLPVTPGEPASISCQASESLVHSNRNTYLHWYLQKPGQSPQLLIYKVSNRFSGVPDRFSGSGSGTDFTLKISRVEAEDVGVYYCSQNTHVPPTFGQGTKVEIE",1 % of GpH7-B3/GpL16-k0,-5 % of GpH7-B3/GpL16-k0,-1 % of GpH7-B3/GpL16-k0,-3 % of GpH7-B3/GpL16-k0,-1 % of GpH7-B3/GpL16-k0
"GpH7-B3 variant S267F/GpL16-k0 (antibody, human IgG1, copies: 2 + 2) heavy: not shown light: DIVMTQSPLSLPVTPGEPASISCQASESLVHSNRNTYLHWYLQKPGQSPQLLIYKVSNRFSGVPDRFSGSGSGTDFTLKISRVEAEDVGVYYCSQNTHVPPTFGQGTKVEIE",91 % of GpH7-B3/GpL16-k0,13 % of GpH7-B3/GpL16-k0,1 % of GpH7-B3/GpL16-k0,18 % of GpH7-B3/GpL16-k0,0 % of GpH7-B3/GpL16-k0
"GpH7-B3 variant S267H/GpL16-k0 (antibody, human IgG1, copies: 2 + 2) heavy: not shown light: DIVMTQSPLSLPVTPGEPASISCQASESLVHSNRNTYLHWYLQKPGQSPQLLIYKVSNRFSGVPDRFSGSGSGTDFTLKISRVEAEDVGVYYCSQNTHVPPTFGQGTKVEIE",95 % of GpH7-B3/GpL16-k0,27 % of GpH7-B3/GpL16-k0,3 % of GpH7-B3/GpL16-k0,42 % of GpH7-B3/GpL16-k0,1 % of GpH7-B3/GpL16-k0
"GpH7-B3 variant V266G/GpL16-k0 (antibody, human IgG1, copies: 2 + 2) heavy: not shown light: DIVMTQSPLSLPVTPGEPASISCQASESLVHSNRNTYLHWYLQKPGQSPQLLIYKVSNRFSGVPDRFSGSGSGTDFTLKISRVEAEDVGVYYCSQNTHVPPTFGQGTKVEIE",86 % of GpH7-B3/GpL16-k0,27 % of GpH7-B3/GpL16-k0,10 % of GpH7-B3/GpL16-k0,22 % of GpH7-B3/GpL16-k0,3 % of GpH7-B3/GpL16-k0
"GpH7-B3 variant V266D/GpL16-k0 (antibody, human IgG1, copies: 2 + 2) heavy: not shown light: DIVMTQSPLSLPVTPGEPASISCQASESLVHSNRNTYLHWYLQKPGQSPQLLIYKVSNRFSGVPDRFSGSGSGTDFTLKISRVEAEDVGVYYCSQNTHVPPTFGQGTKVEIE",67 % of GpH7-B3/GpL16-k0,3 % of GpH7-B3/GpL16-k0,2 % of GpH7-B3/GpL16-k0,2 % of GpH7-B3/GpL16-k0,1 % of GpH7-B3/GpL16-k0
"GpH7-B3 variant V266E/GpL16-k0 (antibody, human IgG1, copies: 2 + 2) heavy: not shown light: DIVMTQSPLSLPVTPGEPASISCQASESLVHSNRNTYLHWYLQKPGQSPQLLIYKVSNRFSGVPDRFSGSGSGTDFTLKISRVEAEDVGVYYCSQNTHVPPTFGQGTKVEIE",69 % of GpH7-B3/GpL16-k0,-3 % of GpH7-B3/GpL16-k0,0 % of GpH7-B3/GpL16-k0,0 % of GpH7-B3/GpL16-k0,-1 % of GpH7-B3/GpL16-k0
"GpH7-B3 variant S267P/GpL16-k0 (antibody, human IgG1, copies: 2 + 2) heavy: not shown light: DIVMTQSPLSLPVTPGEPASISCQASESLVHSNRNTYLHWYLQKPGQSPQLLIYKVSNRFSGVPDRFSGSGSGTDFTLKISRVEAEDVGVYYCSQNTHVPPTFGQGTKVEIE",78 % of GpH7-B3/GpL16-k0,0 % of GpH7-B3/GpL16-k0,2 % of GpH7-B3/GpL16-k0,5 % of GpH7-B3/GpL16-k0,0 % of GpH7-B3/GpL16-k0
"GpH7-B3 variant V266N/GpL16-k0 (antibody, human IgG1, copies: 2 + 2) heavy: not shown light: DIVMTQSPLSLPVTPGEPASISCQASESLVHSNRNTYLHWYLQKPGQSPQLLIYKVSNRFSGVPDRFSGSGSGTDFTLKISRVEAEDVGVYYCSQNTHVPPTFGQGTKVEIE",84 % of GpH7-B3/GpL16-k0,58 % of GpH7-B3/GpL16-k0,32 % of GpH7-B3/GpL16-k0,40 % of GpH7-B3/GpL16-k0,5 % of GpH7-B3/GpL16-k0
"GpH7-B3 variant V266Q/GpL16-k0 (antibody, human IgG1, copies: 2 + 2) heavy: not shown light: DIVMTQSPLSLPVTPGEPASISCQASESLVHSNRNTYLHWYLQKPGQSPQLLIYKVSNRFSGVPDRFSGSGSGTDFTLKISRVEAEDVGVYYCSQNTHVPPTFGQGTKVEIE",88 % of GpH7-B3/GpL16-k0,47 % of GpH7-B3/GpL16-k0,11 % of GpH7-B3/GpL16-k0,34 % of GpH7-B3/GpL16-k0,3 % of GpH7-B3/GpL16-k0
"GpH7-B3 variant V266H/GpL16-k0 (antibody, human IgG1, copies: 2 + 2) heavy: not shown light: DIVMTQSPLSLPVTPGEPASISCQASESLVHSNRNTYLHWYLQKPGQSPQLLIYKVSNRFSGVPDRFSGSGSGTDFTLKISRVEAEDVGVYYCSQNTHVPPTFGQGTKVEIE",62 % of GpH7-B3/GpL16-k0,22 % of GpH7-B3/GpL16-k0,2 % of GpH7-B3/GpL16-k0,14 % of GpH7-B3/GpL16-k0,0 % of GpH7-B3/GpL16-k0
"GpH7-B3 variant V266K/GpL16-k0 (antibody, human IgG1, copies: 2 + 2) heavy: not shown light: DIVMTQSPLSLPVTPGEPASISCQASESLVHSNRNTYLHWYLQKPGQSPQLLIYKVSNRFSGVPDRFSGSGSGTDFTLKISRVEAEDVGVYYCSQNTHVPPTFGQGTKVEIE",15 % of GpH7-B3/GpL16-k0,0 % of GpH7-B3/GpL16-k0,-1 % of GpH7-B3/GpL16-k0,-1 % of GpH7-B3/GpL16-k0,-1 % of GpH7-B3/GpL16-k0
"GpH7-B3 variant V266R/GpL16-k0 (antibody, human IgG1, copies: 2 + 2) heavy: not shown light: DIVMTQSPLSLPVTPGEPASISCQASESLVHSNRNTYLHWYLQKPGQSPQLLIYKVSNRFSGVPDRFSGSGSGTDFTLKISRVEAEDVGVYYCSQNTHVPPTFGQGTKVEIE",5 % of GpH7-B3/GpL16-k0,-6 % of GpH7-B3/GpL16-k0,-1 % of GpH7-B3/GpL16-k0,-2 % of GpH7-B3/GpL16-k0,-1 % of GpH7-B3/GpL16-k0
"GpH7-B3 variant S267W/GpL16-k0 (antibody, human IgG1, copies: 2 + 2) heavy: not shown light: DIVMTQSPLSLPVTPGEPASISCQASESLVHSNRNTYLHWYLQKPGQSPQLLIYKVSNRFSGVPDRFSGSGSGTDFTLKISRVEAEDVGVYYCSQNTHVPPTFGQGTKVEIE",97 % of GpH7-B3/GpL16-k0,26 % of GpH7-B3/GpL16-k0,2 % of GpH7-B3/GpL16-k0,29 % of GpH7-B3/GpL16-k0,2 % of GpH7-B3/GpL16-k0
"GpH7-B3 variant S267Y/GpL16-k0 (antibody, human IgG1, copies: 2 + 2) heavy: not shown light: DIVMTQSPLSLPVTPGEPASISCQASESLVHSNRNTYLHWYLQKPGQSPQLLIYKVSNRFSGVPDRFSGSGSGTDFTLKISRVEAEDVGVYYCSQNTHVPPTFGQGTKVEIE",96 % of GpH7-B3/GpL16-k0,10 % of GpH7-B3/GpL16-k0,2 % of GpH7-B3/GpL16-k0,14 % of GpH7-B3/GpL16-k0,1 % of GpH7-B3/GpL16-k0
